{"source": "paper PMC314469", "about": "“Protein Interaction Networks by Proteome Peptide Scanning” (PLoS Biology, 2004)", "target": "T1, Abp1 SH3 (ABP1_YEAST), P15891", "T1 chain": "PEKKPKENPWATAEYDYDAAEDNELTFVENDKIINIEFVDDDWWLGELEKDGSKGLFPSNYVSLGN", "experiment": "SPOT array"}
{"binder": "TTPTIETPISSKP", "note": "[YJL005W 370-382]", "values": [{"measurement": "normalised SPOT signal, Boehringer light units (BLU); mean over the file's lines of this peptide", "value": 38.3}]}
{"binder": "TTTYKSRPDRPKP", "note": "[YBR289W 757-769]", "values": [{"measurement": "normalised SPOT signal, Boehringer light units (BLU); mean over the file's lines of this peptide", "value": 1770}]}
{"binder": "TTVPQQLPLEPLKP", "note": "[YOR329C 400-413]", "values": [{"measurement": "normalised SPOT signal, Boehringer light units (BLU); mean over the file's lines of this peptide", "value": 104}]}
{"binder": "TVADTLQPGLPHKP", "note": "[YKL148C 463-476]", "values": [{"measurement": "normalised SPOT signal, Boehringer light units (BLU); mean over the file's lines of this peptide", "value": 169}]}
{"binder": "TVEYIRPETLPKKP", "note": "[YNR051C 370-383]", "values": [{"measurement": "normalised SPOT signal, Boehringer light units (BLU); mean over the file's lines of this peptide", "value": 65.5}]}
{"binder": "TVIYANAPIEEKP", "note": "[YLR414C 249-261]", "values": [{"measurement": "normalised SPOT signal, Boehringer light units (BLU); mean over the file's lines of this peptide", "value": 191}]}
{"binder": "TVKKPARPWRAKP", "note": "[YKL220C 449-461]", "values": [{"measurement": "normalised SPOT signal, Boehringer light units (BLU); mean over the file's lines of this peptide", "value": 356}]}
{"binder": "TVPTNHVPNYIKP", "note": "[YGR165W 78-90]", "values": [{"measurement": "normalised SPOT signal, Boehringer light units (BLU); mean over the file's lines of this peptide", "value": 3.6}]}
{"binder": "TVQRYYKTTVPTKP", "note": "[YKR084C 138-151]", "values": [{"measurement": "normalised SPOT signal, Boehringer light units (BLU); mean over the file's lines of this peptide", "value": 352}]}
{"binder": "TYFSVEAPPSIRP", "note": "[YEL044W 99-111]", "values": [{"measurement": "normalised SPOT signal, Boehringer light units (BLU); mean over the file's lines of this peptide", "value": 76.1}]}
{"binder": "TYQTLHSPKKFKP", "note": "[YOR022C 44-56]", "values": [{"measurement": "normalised SPOT signal, Boehringer light units (BLU); mean over the file's lines of this peptide", "value": 176}]}
{"binder": "TYVHAWDMRSPHRP", "note": "[YDR128W 137-150]", "values": [{"measurement": "normalised SPOT signal, Boehringer light units (BLU); mean over the file's lines of this peptide", "value": 489}]}
{"binder": "VADVQWSPHPAKP", "note": "[YDR128W 70-82]", "values": [{"measurement": "normalised SPOT signal, Boehringer light units (BLU); mean over the file's lines of this peptide", "value": 66.3}]}
{"binder": "VAFILLTPIHSRP", "note": "[YGL160W 214-226]", "values": [{"measurement": "normalised SPOT signal, Boehringer light units (BLU); mean over the file's lines of this peptide", "value": 48.3}]}
{"binder": "VAIIRYKPYLDRP", "note": "[YPL221W 502-514]", "values": [{"measurement": "normalised SPOT signal, Boehringer light units (BLU); mean over the file's lines of this peptide", "value": 156}]}
{"binder": "VAIIYYKPYLDRP", "note": "[YGL139W 508-520]", "values": [{"measurement": "normalised SPOT signal, Boehringer light units (BLU); mean over the file's lines of this peptide", "value": 76.3}]}
{"binder": "VSDKTKKKTVPVKP", "note": "[YBL017C 681-694]", "values": [{"measurement": "normalised SPOT signal, Boehringer light units (BLU); mean over the file's lines of this peptide", "value": 171}]}
{"binder": "VSGTRQSPIPKKP", "note": "[YML007W 309-321]", "values": [{"measurement": "normalised SPOT signal, Boehringer light units (BLU); mean over the file's lines of this peptide", "value": 935}]}
{"binder": "VDDYNASFELPLKP", "note": "[YGL134W 27-40]", "values": [{"measurement": "normalised SPOT signal, Boehringer light units (BLU); mean over the file's lines of this peptide", "value": 95.4}]}
{"binder": "VDGGMAFNPDPKKP", "note": "[YER095W 331-344]", "values": [{"measurement": "normalised SPOT signal, Boehringer light units (BLU); mean over the file's lines of this peptide", "value": 74.7}]}
{"binder": "VDGLSNPPTLLRP", "note": "[YGL169W 237-249]", "values": [{"measurement": "normalised SPOT signal, Boehringer light units (BLU); mean over the file's lines of this peptide", "value": 21.8}]}
{"binder": "VDQLDTASIHPSRP", "note": "[YGL115W 118-131]", "values": [{"measurement": "normalised SPOT signal, Boehringer light units (BLU); mean over the file's lines of this peptide", "value": 110}]}
{"binder": "VDRDSAIFYLPQRP", "note": "[YKL188C 543-556]", "values": [{"measurement": "normalised SPOT signal, Boehringer light units (BLU); mean over the file's lines of this peptide", "value": 66.1}]}
